According to PMC6389858:

How the values were obtained:
[1] = target: T1, OxyR (Escherichia coli K12 BW25113?) (UniProt P0ACQ4); test: competition; settings: EMSA: 10 mM HEPES pH 7.3, 20 mM KCl, 1 mM MgCl2, 5% glycerol, poly dI-dC, NP-40, 25 C, 2 h; 6% DNA retardation gel
T1 sequence: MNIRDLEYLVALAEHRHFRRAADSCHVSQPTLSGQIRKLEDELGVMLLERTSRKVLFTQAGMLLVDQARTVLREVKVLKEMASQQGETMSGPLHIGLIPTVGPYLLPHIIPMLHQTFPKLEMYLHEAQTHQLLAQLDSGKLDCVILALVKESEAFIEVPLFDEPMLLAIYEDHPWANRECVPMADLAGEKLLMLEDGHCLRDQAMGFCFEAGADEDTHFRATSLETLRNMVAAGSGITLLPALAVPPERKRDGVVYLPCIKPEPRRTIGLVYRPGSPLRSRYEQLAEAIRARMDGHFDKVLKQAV

[2] = target: T1, OxyR (Escherichia coli K12 BW25113?); test: EMSA; settings: EMSA: 10 mM HEPES pH 7.3, 20 mM KCl, 1 mM MgCl2, 5% glycerol, poly dI-dC, NP-40, 25 C, 2 h; 6% DNA retardation gel

Sequence: ACTGGCCTGATAAGCCTGTTTACCTCGGGGCGCAGGCGCATCTGCAAAACTTCTACCAGAGTTTCGGTTTTATCCCTGTGACGGAGGTCTATGAAGAAGATGGTATCCCACACATTGGGATGGCACGCGAGGTAATTCAGGCGTAATCAACAACCCTTGTCTATAGTTAGTGACAGGTTTTACGCAAATGGAGAACGAGA (double strand) [PelaB-S (elaB promoter probe with OxyR binding site 2)]
- binding [1]: binds
- binding [2]: binds
